Measurements published in patent publication US20240374745A1.

How the values were obtained:
[1] = target: PD-1-hFc (human); test: BLI, immobilized PD-1-hFc; untreated sample before LRP1 depletion
[2] = target: CTLA-4-hFc; test: BLI, immobilized CTLA-4-hFc; untreated sample before LRP1 depletion
Sequence of CTLA-4-hFc (chain, as listed by the source limits assumed): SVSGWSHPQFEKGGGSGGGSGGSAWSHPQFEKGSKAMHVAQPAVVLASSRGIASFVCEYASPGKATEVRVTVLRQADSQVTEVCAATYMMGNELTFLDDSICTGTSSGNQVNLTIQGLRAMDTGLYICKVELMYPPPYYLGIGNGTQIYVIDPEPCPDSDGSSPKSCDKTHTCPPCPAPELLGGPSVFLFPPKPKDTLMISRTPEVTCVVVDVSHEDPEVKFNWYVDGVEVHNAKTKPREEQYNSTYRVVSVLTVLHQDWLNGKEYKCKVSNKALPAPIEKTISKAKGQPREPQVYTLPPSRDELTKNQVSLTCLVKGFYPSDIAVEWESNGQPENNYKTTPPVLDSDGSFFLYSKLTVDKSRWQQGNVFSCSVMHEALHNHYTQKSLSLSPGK

Sequence of PD-1-hFc (human) (chain, as listed by the source limits assumed): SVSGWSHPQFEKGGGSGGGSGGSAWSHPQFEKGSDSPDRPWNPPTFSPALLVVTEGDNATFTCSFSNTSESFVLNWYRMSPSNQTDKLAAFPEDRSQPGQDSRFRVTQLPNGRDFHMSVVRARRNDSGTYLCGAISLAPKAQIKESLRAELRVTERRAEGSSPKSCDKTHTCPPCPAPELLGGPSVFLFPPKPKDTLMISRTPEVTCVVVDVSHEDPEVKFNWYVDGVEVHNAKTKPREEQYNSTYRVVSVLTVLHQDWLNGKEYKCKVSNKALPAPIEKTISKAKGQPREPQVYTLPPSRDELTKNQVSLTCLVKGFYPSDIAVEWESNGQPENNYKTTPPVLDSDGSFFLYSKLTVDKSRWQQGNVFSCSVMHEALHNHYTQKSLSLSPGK

Row | Substance | percent of the maximum binding defined by thermolysin activation [1] | percent of the maximum binding defined by thermolysin activation [2]
1 | A2M-Nivolumab, untreated (native conformation) | 25% | –
2 | A2M-Ipilimumab, untreated (native conformation) | – | 25%
